Target: the molecule itself
Experiment: size exclusion chromatography (homodimerization) of GFP-tagged PAN domain purified from HEK293 cells
Description: These cysteine residues coordinate three disulfide bridges to form a hairpin structure. The inventors hypothesized that cysteine rich PAN domain of G-lecRLKs form disulfide bonds involved in dimerization and subsequent receptor proteolysis to prevent downstream signaling cascades. To address this hypothesis, a GFP tagged PAN domain construct of RLK5 was made. In addition, mutated amino acids in the RLK5 vestigial domain were restored to consensus PAN domain amino acids based on the alignment in FIG. 1, this construct was designated RLK5-restored (RLK5R). Both RLK5 and RLK5R constructs were transfected and overexpressed in HEK293 cells. Proteins were purified on GFP column and loaded into size exclusion column (SEC) to analyze the oligomeric state.

B1: GFP tagged PAN domain construct of RLK5 (SapurV1A.0037s0270.1) (receptor)
chain: DSDYNMDTYEHTFLYGIYPPNEAIIIASLQQCREVCMQDPGCTAATFTNDGTSQCRMKTSPYFSGHQNPSLSSISFVKT
notes: It was expressed in HEK293 cells and purified on a GFP column; not shown: GFP tag
- binding result: no binding
